Experimental data reported in patent US11065317B2, “Heat shock protein-binding peptide compositions and methods of use thereof” (Agenus Inc., priority 2018, dated 2021).

Biological target: T1, human Hsc70 (Homo sapiens, UniProt P11142)
T1 construct: made in house; host or cells: E. coli
Assay: Percent complexation of peptides with Hsc70 by size exclusion chromatography
Format: binding
Conditions: 60 minutes at 30° C., SEC, 214 nm; for Percent complexation of peptides with Hsc70, 0.25:1: peptide:Hsc70 molar ratio 0.25:1; for Percent complexation of peptides with Hsc70, 0.5:1: peptide:Hsc70 molar ratio 0.5:1; for Percent complexation of peptides with Hsc70, 1:1: peptide:Hsc70 molar ratio 1:1; for Percent complexation of peptides with Hsc70, 2:1: peptide:Hsc70 molar ratio 2:1; for Percent complexation of peptides with Hsc70, 4:1: peptide:Hsc70 molar ratio 4:1
Protocol: In a separate experiment, further variants of the peptide NLLRLTG (SEQ ID NO: 70) were generated and the ability of these peptides to form a peptide-Hsc70 complex was analyzed. Peptides were again synthesized using standard Fmoc solid-phase chemical synthesis, as described above. Individual peptides were solubilized in pH adjusted water at a concentration of 250 μM, and spiked with polysorbate 20 to a final concentration of 0.1%. To form a peptide-Hsc70 complex, Hsc70 (1 mg/ml, 0.1% polysorbate) was mixed with peptide at peptide:Hsc70 molar ratios of, 0.25:1, 0.5:1, 1:1, 2:1, and 4:1, for 60 minutes at 30° C. Following incubation, samples were cooled for 5 minutes at room temperature and transferred to HPLC vials for analysis. To evaluate the quantity of the complex in the solution, 20 μl (10 μg) of the sample was loaded on a size exclusion chromatography column TSKgel SuperSW3000 (Tosoh Bioscience) at a flow rate of 0.2 ml/min with 1×PBS as a running buffer. The data was collected by measuring the absorbance at 214 nm.
The percent of Hsc70 bound to peptide was calculated by SEC. As shown in the SEC chromatogram depicted in FIG. 1, recombinant human heat shock cognate 71 kDa protein (Hsc70) appeared as monomer (M), dimer (D), trimer (T), and higher order high molecular weight (HMW) oligomeric species when subjected to SEC chromatography. Resolution and evaluation of the extent to which peptide-Hsc70 complex was formed with a given peptide or peptide mixture was complicated by the close elution of a complex of Hsc70 monomer with peptide (Msh). The peaks corresponding to monomer and complex overlap and were not fully resolved by conventional SEC media. In order to more accurately calculate the extent of complex formation, the following data analytical method was used. […] Peak area integrations of these protein species were well resolved from the complex and monomer. Further, the extent to which complex was formed appeared to be […] to the extent to which trimer and dimer were recruited to complex formation. Because of this observation, changes in trimer and dimer reflected the extent to which monomer was recruited to the formation of complex. Thus, the progression of changes in the level of trimer and dimer was used to calculate expected changes in the peak areas of overlapping complex and monomer species, and these calculated peak areas were used to calculate net formation of complex.
Terms used for various chromatographic fractions include: High Molecular Weight (HMW), Trimer and other mid-order oligomer (T), Dimer (D), Complex (C), Monomer shoulder (Msh), and Monomer (M) (see FIG. 1). Peak areas of the various fractions were extracted from SEC data and the percentage of peptide-Hsc70 complex formation was calculated using the following set of equations: % Complex=(AREAcomplex/AREATotal)×100 AREAcomplex=AREATotal−(AreaT+D+AreaMshx+AreaMx) AREATotal=AREAT+D,C,Msh,M+(AREAHDw-x−AREAHDW-0) AREAMshx=AREAMsh0×(AREA(T+D)x)/(AREA(T+D)0) AREAMx=AREAM0×(AREA(T+D)x)/(AREA(T+D)0)
AREATotal is the sum of total integrated peak areas from trimer/oligomer region through the monomer peak and excludes the initial HMW peak area but includes the excess increase of the HMW peak area that was observed when peptide was added. The HMW peak was excluded from the complexation calculation on the basis that it was aggregated protein that was not functional for complexation. This correction took into account AreaTotal factors in the minor increase in HMW area, adding it back to base total area used to calculate area of complex.
The foregoing method was applied to the SEC chromatogram for each complexation reaction by applying vertical lines to the chromatogram to produce HMW, T, C, D, and M segments (as shown in FIG. 1), calculating the area under the curve for of each of the indicated HMW, T, C, D, and M segments, and inputting the values into the equations described above.

T1 sequence (P11142 whole entry): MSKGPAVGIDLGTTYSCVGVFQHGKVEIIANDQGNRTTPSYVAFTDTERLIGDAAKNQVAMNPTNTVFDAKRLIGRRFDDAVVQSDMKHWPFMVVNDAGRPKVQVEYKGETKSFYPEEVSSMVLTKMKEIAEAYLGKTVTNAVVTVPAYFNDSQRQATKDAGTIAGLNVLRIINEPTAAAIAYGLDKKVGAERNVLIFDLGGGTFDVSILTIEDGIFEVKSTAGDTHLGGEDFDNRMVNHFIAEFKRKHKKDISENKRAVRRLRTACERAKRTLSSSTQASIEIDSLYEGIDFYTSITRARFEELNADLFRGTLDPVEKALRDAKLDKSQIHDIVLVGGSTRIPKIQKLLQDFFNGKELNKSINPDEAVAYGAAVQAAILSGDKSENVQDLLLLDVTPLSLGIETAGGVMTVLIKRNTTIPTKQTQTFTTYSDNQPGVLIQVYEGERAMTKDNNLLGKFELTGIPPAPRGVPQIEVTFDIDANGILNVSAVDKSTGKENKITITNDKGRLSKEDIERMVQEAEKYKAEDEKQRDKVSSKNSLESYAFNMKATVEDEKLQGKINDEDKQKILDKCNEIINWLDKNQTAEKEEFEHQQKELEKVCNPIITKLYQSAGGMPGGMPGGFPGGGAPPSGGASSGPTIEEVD

Sequence | Percent complexation of peptides with Hsc70, 0.25:1 [%] | Percent complexation of peptides with Hsc70, 0.5:1 [%] | Percent complexation of peptides with Hsc70, 1:1 [%] | Percent complexation of peptides with Hsc70, 2:1 [%] | Percent complexation of peptides with Hsc70, 4:1 [%]
FFRKFWLRLTW [PEP008] | 24.4 | 38.3 | 61.8 | 79.1 | 81.6
FFRKNFLRLTF [PEP027] | 19.1 | 49.0 | 77.0 | 85.6 | 90.0
FFRKNLLRLTG [PEP001, reference compound] | 23.4 | 44.7 | 68.1 | 82.5 | 90.1
FFRKNLLRLTW [PEP155] | 22.5 | 48.1 | 75.6 | 82.9 | 86.6
FFRKNLLRWTG [PEP004] | 15.4 | 29.0 | 46.8 | 62.5 | 75.3
FFRKNRLLLTG [PEP002] | 19.2 | 32.0 | 48.7 | 64.8 | 78.8
FFRKNRLWLTG [PEP005] | 16.0 | 32.7 | 54.8 | 67.6 | 77.6
FFRKNWIRITW [PEP013] | 25.6 | 48.3 | 69.6 | 81.9 | 87.7
FFRKNWLKLKW [PEP055] | 24.1 | 52.2 | 75.9 | 83.7 | 86.3
FFRKNWLKLRW [PEP057] | 24.9 | 50.0 | 72.2 | 82.8 | 88.3
FFRKNWLKLTW [PEP012] | 29.9 | 58.2 | 79.2 | 86.2 | 89.5
FFRKNWLKLWK [PEP058] | 22.7 | 43.5 | 66.5 | 78.8 | 83.9
FFRKNWLLLTW [PEP003] | 26.8 | 45.6 | 67.2 | 81.3 | 87.6
FFRKNWLRLFW [PEP010] | 19.1 | 42.2 | 64.9 | 79.3 | 86.5
FFRKNWLRLKW [PEP011] | 31.2 | 58.2 | 81.6 | 87.8 | 90.4
FFRKNWLRLLW [PEP009] | 32.8 | 63.5 | 81.0 | 85.3 | 89.0
FFRKQWLRLTW [PEP014] | 29.3 | 54.4 | 80.9 | 88.1 | 90.3
FRNWLRLTW [PEP028] | 24.0 | 46.4 | 75.6 | 84.1 | 87.5
